Test results: paper PMC2288786 (BMC Structural Biology, 2008)

Assays:
Details in all cases: both partners purified
[1] = molecular target: T1, calmodulin (recombinant, from the expression construct pETCM with vertebrate CaM cDNA) ( (vertebrate CaM cDNA), UniProt P0DP23 2-149); test: ITC; 1.0 mM MBP peptide injected into 0.10 mM CaM; 50 mM HEPES pH 7.5, 20 mM CaCl2; +40°C; fits: one site (peaks 2-7) and 4 sequential sites (peaks 2-20)
[2] = molecular target: T1, calmodulin (recombinant, from the …); test: small-angle X-ray scattering (SAXS); CaM in solution with and without a 5-fold molar excess of the peptide, 5.4 to 140.0 mg/ml; X33 beamline, DESY
[3] = molecular target: T1, calmodulin (recombinant, from the …); test: SPR; Biacore 3000; CaM immobilised by amine coupling (4000 RU); peptide 2.5-200 μM injected; 10 mM HEPES pH 7.5, 150 mM NaCl, 4 mM CaCl2, 0.005% P-20; 30 μl/min; two-state conformational change model; also 2-site model on equilibrium RU
[4] = molecular target: T1, calmodulin (recombinant, from the …); test: ITC; 1.0 mM MBP peptide injected into 0.10 mM CaM; 50 mM HEPES pH 7.5, 20 mM CaCl2; +25°C; fits: one site (peaks 2-7) and 4 sequential sites (peaks 2-20)
[5] = molecular target: T1, calmodulin (recombinant, from the …); test: ITC; 1.0 mM MBP peptide injected into 0.10 mM CaM; 50 mM HEPES pH 7.5, 20 mM CaCl2; +35°C; fits: one site (peaks 2-7) and 4 sequential sites (peaks 2-20)
[6] = molecular target: T1, calmodulin (recombinant, from the …); test: ITC; 1.0 mM MBP peptide injected into 0.10 mM CaM; 50 mM HEPES pH 7.5, 20 mM CaCl2; +30°C; fits: one site (peaks 2-7) and 4 sequential sites (peaks 2-20)

B1: MBP peptide HKGFKGVDAQGTLSKIFKL, residues 138-156 of the human MBP 18.5 kDa isoform (peptide)
peptide: HKGFKGVDAQGTLSKIFKL
notes: myelin basic protein, human, 18.5-kDa isoform, residues 138-156; also called the peptide; myelin peptide; source: synthetic peptide, 95% purity; bought: Genemed Synthesis
Kd [1]: 25.9 µM
Kd of the first binding event (4-site model) [1]: 1.7 µM
dH [1]: -1.09 ± 0.97 kcal/mol
dH of the first binding event (4-site model) [1]: -0.73 ± 0.05 kcal/mol
stoichiometry N [1]: 0.7 ± 0.17
stoichiometry N [2]: 1
Kd [3]: 58 µM
Kd of the high-affinity binding event (2-site model, equilibrium RU) [3]: ~10 µM
Kd of the low-affinity binding event (2-site model, equilibrium RU) [3]: ~1000 µM
Kd [4]: 3.4 µM
Kd of the first binding event (4-site model) [4]: 1 µM
dH [4]: -1.47 ± 0.13 kcal/mol
dH of the first binding event (4-site model) [4]: -1.44 ± 0.04 kcal/mol
stoichiometry N [4]: 0.83 ± 0.23
Kd [5]: 1.9 µM
Kd of the first binding event (4-site model) [5]: 1 µM
dH [5]: -2.38 ± 0.1 kcal/mol
dH of the first binding event (4-site model) [5]: -2.34 ± 0.03 kcal/mol
stoichiometry N [5]: 0.63 ± 0.02
Kd [6]: 2.3 µM
Kd of the first binding event (4-site model) [6]: 1.1 µM
dH [6]: -2.11 ± 0.06 kcal/mol
dH of the first binding event (4-site model) [6]: -2.07 ± 0.02 kcal/mol
stoichiometry N [6]: 0.67 ± 0.02
